Data as given in article PMC8634136 (The EMBO Journal, 2021).

T1: TIMELESS (human, UniProt Q9UNS1 1-1208)
T1 construct: Stood in the structure as a subunit of m3; residues 7-803 modelled (527-684 not visualised)
T1 sequence: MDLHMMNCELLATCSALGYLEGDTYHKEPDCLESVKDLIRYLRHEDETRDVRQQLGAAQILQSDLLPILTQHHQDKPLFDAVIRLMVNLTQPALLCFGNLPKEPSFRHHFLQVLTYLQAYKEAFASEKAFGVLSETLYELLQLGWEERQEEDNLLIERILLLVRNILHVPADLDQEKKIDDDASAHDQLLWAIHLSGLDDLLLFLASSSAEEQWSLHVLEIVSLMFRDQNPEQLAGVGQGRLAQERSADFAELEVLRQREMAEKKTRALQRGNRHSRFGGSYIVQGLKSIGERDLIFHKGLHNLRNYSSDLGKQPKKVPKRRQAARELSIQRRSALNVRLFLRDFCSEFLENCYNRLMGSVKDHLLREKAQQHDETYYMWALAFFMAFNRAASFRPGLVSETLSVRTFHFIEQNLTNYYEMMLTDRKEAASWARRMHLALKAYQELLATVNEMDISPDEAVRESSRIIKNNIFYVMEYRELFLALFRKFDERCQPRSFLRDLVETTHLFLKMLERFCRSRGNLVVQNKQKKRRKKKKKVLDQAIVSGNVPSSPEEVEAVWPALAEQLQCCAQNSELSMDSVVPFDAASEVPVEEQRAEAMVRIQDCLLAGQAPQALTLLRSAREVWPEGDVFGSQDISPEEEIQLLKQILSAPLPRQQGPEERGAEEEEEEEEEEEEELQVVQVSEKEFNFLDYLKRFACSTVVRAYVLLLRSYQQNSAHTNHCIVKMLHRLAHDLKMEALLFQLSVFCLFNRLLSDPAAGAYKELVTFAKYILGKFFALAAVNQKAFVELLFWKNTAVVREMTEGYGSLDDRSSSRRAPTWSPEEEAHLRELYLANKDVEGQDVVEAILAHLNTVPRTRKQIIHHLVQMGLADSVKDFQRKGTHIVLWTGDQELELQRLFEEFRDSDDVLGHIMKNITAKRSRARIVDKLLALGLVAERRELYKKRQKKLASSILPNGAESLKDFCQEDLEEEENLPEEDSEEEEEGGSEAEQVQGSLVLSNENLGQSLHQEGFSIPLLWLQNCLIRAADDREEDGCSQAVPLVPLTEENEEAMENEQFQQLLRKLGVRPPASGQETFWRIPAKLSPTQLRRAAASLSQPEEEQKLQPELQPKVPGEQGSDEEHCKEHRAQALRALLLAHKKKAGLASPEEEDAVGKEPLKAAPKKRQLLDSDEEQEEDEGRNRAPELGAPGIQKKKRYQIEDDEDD

B1: MCM4 (natural protein, human)
chain: MSSPASTPSRRGSRRGRATPAQTPRSEDARSSPSQRRRGEDSTSTGELQPMPTSPGVDLQSPAAQDVLFSSPPQMHSSAIPLDFDVSSPLTYGTPSSRVEGTPRSGVRGTPVRQRPDLGSAQKGLQVDLQSDGAAAEDIVASEQSLGQKLVIWGTDVNVAACKENFQRFLQRFIDPLAKEEENVGIDITEPLYMQRLGEINVIGEPFLNVNCEHIKSFDKNLYRQLISYPQEVIPTFDMAVNEIFFDRYPDSILEHQIQVRPFNALKTKNMRNLNPEDIDQLITISGMVIRTSQLIPEMQEAFFQCQVCAHTTRVEMDRGRIAEPSVCGRCHTTHSMALIHNRSLFSDKQMIKLQESPEDMPAGQTPHTVILFAHNDLVDKVQPGDRVNVTGIYRAVPIRVNPRVSNVKSVYKTHIDVIHYRKTDAKRLHGLDEEAEQKLFSEKRVELLKELSRKPDIYERLASALAPSIYEHEDIKKGILLQLFGGTRKDFSHTGRGKFRAEINILLCGDPGTSKSQLLQYVYNLVPRGQYTSGKGSSAVGLTAYVMKDPETRQLVLQTGALVLSDNGICCIDEFDKMNESTRSVLHEVMEQQTLSIAKAGIICQLNARTSVLAAANPIESQWNPKKTTIENIQLPHTLLSRFDLIFLLLDPQDEAYDRRLAHHLVALYYQSEEQAEEELLDMAVLKDYIAYAHSTIMPRLSEEASQALIEAYVDMRKIGSSRGMVSAYPRQLESLIRLAEAHAKVRLSNKVEAIDVEEAKRLHREALKQSATDPRTGIVDISILTTGMSATSRKRKEELAEALKKLILSKGKTPALKYQQLFEDIRGQSDIAITKDMFEEALRALADDDFLTVTGKTVRLL
notes: MCM4, human; Stood in the structure as a subunit of m1; source: Hi5 insect cells, purified as a subunit of hsCMG
B2: MCM6 (natural protein, human)
chain: MDLAAAAEPGAGSQHLEVRDEVAEKCQKLFLDFLEEFQSSDGEIKYLQLAEELIRPERNTLVVSFVDLEQFNQQLSTTIQEEFYRVYPYLCRALKTFVKDRKEIPLAKDFYVAFQDLPTRHKIRELTSSRIGLLTRISGQVVRTHPVHPELVSGTFLCLDCQTVIRDVEQQFKYTQPNICRNPVCANRRRFLLDTNKSRFVDFQKVRIQETQAELPRGSIPRSLEVILRAEAVESAQAGDKCDFTGTLIVVPDVSKLSTPGARAETNSRVSGVDGYETEGIRGLRALGVRDLSYRLVFLACCVAPTNPRFGGKELRDEEQTAESIKNQMTVKEWEKVFEMSQDKNLYHNLCTSLFPTIHGNDEVKRGVLLMLFGGVPKTTGEGTSLRGDINVCIVGDPSTAKSQFLKHVEEFSPRAVYTSGKASSAAGLTAAVVRDEESHEFVIEAGALMLADNGVCCIDEFDKMDVRDQVAIHEAMEQQTISITKAGVKATLNARTSILAAANPISGHYDRSKSLKQNINLSAPIMSRFDLFFILVDECNEVTDYAIARRIVDLHSRIEESIDRVYSLDDIRRYLLFARQFKPKISKESEDFIVEQYKHLRQRDGSGVTKSSWRITVRQLESMIRLSEAMARMHCCDEVQPKHVKEAFRLLNKSIIRVETPDVNLDQEEEIQMEVDEGAGGINGHADSPAPVNGINGYNEDINQESAPKASLRLGFSEYCRISNLIVLHLRKVEEEEDESALKRSELVNWYLKEIESEIDSEEELINKKRIIEKVIHRLTHYDHVLIELTQAGLKGSTEGSESYEEDPYLVVNPNYLLED
notes: human MCM6, subunit of hsCMG; Subunit of the CMG helicase in the replisome structure; source: Hi5 insect cells co-infected with baculoviruses for MCM2-7, GINS and CDC45; purified as hsCMG (Flag M2, Strep-Tactin XT, MonoQ)
B3: TIMELESS (natural protein, human)
chain: T1 sequence
notes: residues 7-803 modelled, 527-684 not seen; Purified together with TIPIN; written here as a single subunit for the pairwise contacts in the replisome structure

Legend:
TIMELESS = target: T1, TIMELESS; assay: cryo-EM structure; replisome reconstituted on fork DNA with AMP-PNP, isolated on a glycerol gradient with glutaraldehyde and BS3; 3.2 Å overall; a sample without CLASPIN solved at 3.4 Å; conditions: both partners purified
CLASPIN = target: T2, CLASPIN (human, UniProt Q9HAW4-1 1-1339); assay: cryo-EM structure; independent replisome preparation that also contained CLASPIN; map EMD-13494 (to be published in a separate study), model PDB 7PFO docked into the density; conditions: both partners purified
T2 construct: human CLASPIN; residues 284-319, 525-540 and 592-618 modelled
T2 sequence (Q9HAW4 whole entry, the tested form may be a part): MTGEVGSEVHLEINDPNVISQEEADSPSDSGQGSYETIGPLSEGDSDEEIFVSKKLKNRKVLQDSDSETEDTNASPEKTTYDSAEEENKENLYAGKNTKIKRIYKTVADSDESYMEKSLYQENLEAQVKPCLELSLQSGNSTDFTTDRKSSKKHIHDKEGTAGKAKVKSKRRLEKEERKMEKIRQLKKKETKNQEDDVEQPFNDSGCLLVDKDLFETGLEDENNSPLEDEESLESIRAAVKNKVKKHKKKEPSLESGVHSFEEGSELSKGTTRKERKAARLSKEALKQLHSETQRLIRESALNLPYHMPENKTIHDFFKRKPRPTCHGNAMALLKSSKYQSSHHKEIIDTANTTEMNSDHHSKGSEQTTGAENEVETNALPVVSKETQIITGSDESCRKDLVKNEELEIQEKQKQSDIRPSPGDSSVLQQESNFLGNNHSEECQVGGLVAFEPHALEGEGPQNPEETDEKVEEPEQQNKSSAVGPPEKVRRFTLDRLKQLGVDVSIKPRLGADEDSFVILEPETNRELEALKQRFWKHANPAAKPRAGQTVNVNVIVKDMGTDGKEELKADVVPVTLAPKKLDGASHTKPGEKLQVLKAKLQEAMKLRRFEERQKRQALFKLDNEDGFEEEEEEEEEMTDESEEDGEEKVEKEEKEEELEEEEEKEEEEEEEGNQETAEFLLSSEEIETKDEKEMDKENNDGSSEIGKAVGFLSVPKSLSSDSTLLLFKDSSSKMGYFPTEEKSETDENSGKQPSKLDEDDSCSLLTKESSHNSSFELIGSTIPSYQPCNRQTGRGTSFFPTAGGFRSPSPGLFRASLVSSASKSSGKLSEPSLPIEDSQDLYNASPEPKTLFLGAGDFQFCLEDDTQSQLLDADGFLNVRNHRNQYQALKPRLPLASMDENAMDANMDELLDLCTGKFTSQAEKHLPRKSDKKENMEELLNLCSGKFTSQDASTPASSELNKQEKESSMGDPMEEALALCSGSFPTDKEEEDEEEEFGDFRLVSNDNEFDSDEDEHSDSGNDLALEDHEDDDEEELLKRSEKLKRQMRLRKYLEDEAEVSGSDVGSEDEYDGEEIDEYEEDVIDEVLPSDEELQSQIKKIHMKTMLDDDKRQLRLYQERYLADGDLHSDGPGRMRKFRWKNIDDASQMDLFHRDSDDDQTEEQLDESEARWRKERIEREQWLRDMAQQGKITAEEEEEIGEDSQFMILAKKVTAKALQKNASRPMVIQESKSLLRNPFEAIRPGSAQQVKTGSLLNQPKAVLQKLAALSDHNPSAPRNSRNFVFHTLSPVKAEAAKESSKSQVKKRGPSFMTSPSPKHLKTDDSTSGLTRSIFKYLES

Binder | binding result (TIMELESS) | binding result (CLASPIN)
B1 | binds | –
B2 | – | binds
B3 | – | binds
